T1: Cynomolgus monkey serum albumin (Cynomolgus monkey), A2V9Z4
T1 chain: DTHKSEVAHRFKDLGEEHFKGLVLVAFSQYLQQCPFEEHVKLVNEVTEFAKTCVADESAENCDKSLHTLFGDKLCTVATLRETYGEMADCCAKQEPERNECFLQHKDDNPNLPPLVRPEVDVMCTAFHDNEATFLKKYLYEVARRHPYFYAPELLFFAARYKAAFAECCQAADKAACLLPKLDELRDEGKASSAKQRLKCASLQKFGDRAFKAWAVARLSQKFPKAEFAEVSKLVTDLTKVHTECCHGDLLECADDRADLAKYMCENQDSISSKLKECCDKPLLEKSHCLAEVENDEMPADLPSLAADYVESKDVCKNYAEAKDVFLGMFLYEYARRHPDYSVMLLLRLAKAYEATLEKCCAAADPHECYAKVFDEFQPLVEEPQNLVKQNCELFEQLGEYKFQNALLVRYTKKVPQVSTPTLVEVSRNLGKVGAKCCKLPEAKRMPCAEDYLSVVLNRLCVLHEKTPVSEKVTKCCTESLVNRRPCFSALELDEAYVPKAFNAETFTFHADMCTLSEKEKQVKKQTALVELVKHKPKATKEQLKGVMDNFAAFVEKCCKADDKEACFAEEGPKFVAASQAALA


Assays:
human serum albumin [1] = target: T2, human serum albumin (human, UniProt P02768 25-609); experiment: SPR (BIAcore), eight-point dilution kinetics
T2 construct: also called HSA; human SA

[2] = target: T3, Cynomolgus monkey serum albumin (Cynomolgus monkey, UniProt A2V9Z4 25-608); experiment: SPR (BIAcore), eight-point dilution kinetics
T3 construct: also called CSA; cyno serum albumin

rat serum albumin [3] = target: T4, rat serum albumin (rat, UniProt P02770 25-608); experiment: SPR (BIAcore), eight-point dilution kinetics
T4 construct: also called RSA

mouse serum albumin [4] = target: T5, mouse serum albumin (mouse, UniProt P07724 25-608); experiment: SPR (BIAcore), eight-point dilution kinetics
T5 construct: also called MSA

[5] = target: T1, Cynomolgus monkey serum albumin …; experiment: SPR (BIAcore), eight-point dilution kinetics; conditions: remark: other sources report otherwise
human serum albumin [6] = target: T2, human serum albumin; experiment: SPR (Biacore), cross-reactivity
[7] = target: T3, Cynomolgus monkey serum albumin; experiment: SPR (Biacore), cross-reactivity
rat serum albumin [8] = target: T4, rat serum albumin; experiment: SPR (Biacore), cross-reactivity
mouse serum albumin [9] = target: T5, mouse serum albumin; experiment: SPR (Biacore), cross-reactivity
human serum albumin [10] = target: T2, human serum albumin; experiment: SPR (Biacore), cross-reactivity against four serum albumins

Binder	Kd (human serum albumin [1])	Kd [2]	Kd (rat serum albumin [3])	Kd (mouse serum albumin [4])	Kd [5]	binding result (human serum albumin [6])	binding result [7]	binding result (rat serum albumin [8])	binding result (mouse serum albumin [9])	binding result (human serum albumin [10])
DOM7r-92-4 (VHH) VHH: EVQLLESGGGLVQPGGSLRLSCAASGFTFDTSSMLWVRQAPGKGLEWVSVIHQSGTPTYYADSVKGRFTISRDNSKNTLYLQMNSLRAEDTAVYYCAKFPSTHGKFDYWGQGTLVTVSS	130 nM	98 nM	260 nM	110 nM						
DOM7r-31-14 (VHH) VHH: EVQLLESGGGLVQPGGSLRLSCTASGFTFRHYRMGWVRQAPGKGLEWVSWIRPDGTFTYYADSVKGRFTISRDNSKNTLYLQMNSLRAEDTAVYYCAKSYMADRFDYWGQGTLVTVSS	58 nM		46 nM	6 nM	31 µM					
DOM7r-31 (VHH, human VH dAb (AlbudAb)) VHH: EVQLLESGGGLVQPGGSLRLSCTASGFTFRHYRMGWVRQAPGKGLEWVSWIRPDGTFTYYADSVKGRFTISRDNSKNTLYLQMNSLRAEDTAVYYCAKSYMGDRFDYWGQGTLVTVSS						binds	binds	binds	binds	
DOM7r-201 (VHH) VHH: EVQLLESGGGLVQPGGSLRLSCAASGFTFNHYTMGWVRQAPGKGLEWVSLIHPSGTVIYYADSVKGRFTISRDNSKNTLYLQMNSLRAEDTAVYYCAKWSSRAFDYWGQGTLVTVSS	60 nM	58 nM	240 nM	280 nM						
DOM7r-36-8 (VHH) VHH: EVQLLESGGGLVQPGGSLRLSCAASGFTFNHYTMGWVRQAPGKGLEWVSLIHPSGTVIYYADSVKGRFTISRDNSKNTLYLQMNSLRAEDTAVYYCARWSSRAFDYWGQGTLVTVSS	67 nM	92 nM	210 nM	520 nM						
DOM7r-36-2 (VHH) VHH: EVQLLESGGGLVQPGGSLRLSCAASGFTFNHYTMGWVRQAPGKGREWVSLIHPSGTVTYYADSVKGRFTISRDNSKNTLYLQMNSLRAEDTAVYYCAKWSSRAFDYWGQGTLVTVSS	150 nM	180 nM	190 nM	520 nM						
DOM7h-98 (VHH, human VH dAb (AlbudAb)) VHH: EVQLLESGGGLVQPGGSLRLSCAASGFTFGNYAMAWVRQAPGKGLEWVSSIDMVGIKTYYADSVKGRFTISRDNSKNTLYLQMNSLRAEDTAVYYCAKGFRIFDYWGQGTLVTVSS						binds	binds	binds	binds	
DOM7h-98-4 (VHH) VHH: EVQLLESGGGLVQPGGSLRLSCAASGFTFGNYAMAWVRQAPGKGLEWVSSIDMVGIKTYYADSVKGRFTNSRDNSKNTLYLQMNSLRAEDTAVYYCARGFRIFDYWGQGTLVTVSS	2000 nM	3600 nM	580 nM	810 nM						

Continued, values first:

Kd (human serum albumin [1])	Kd [2]	Kd (rat serum albumin [3])	Kd (mouse serum albumin [4])	Kd [5]	binding result (human serum albumin [6])	binding result [7]	binding result (rat serum albumin [8])	binding result (mouse serum albumin [9])	binding result (human serum albumin [10])	Binder
					binds	binds	binds	binds		DOM7r-36 (VHH, human VH dAb (AlbudAb)) VHH: EVQLLESGGGLVQPGGSLRLSCAASGFTFNHYTMGWVRQAPGKGLEWVSLIHPSGTVTYYADSVKGRFTISRDNSKNTLYLQMNSLRAEDTAVYYCAKWSSRAFDYWGQGTLVTVSS
					binds	binds	binds	binds		DOM7r-38 (VHH, human VH dAb (AlbudAb)) VHH: EVQLLESGGGLVQPGGSLRLSCAASGFTFDNNAMGWVRQAPGKGLEWVSTISANGNATYYADSVKGRFTISRDNSKDTLYLQMNSLRAEDTAVYYCAKGFRRFDYWGQGTLVTVSS
					binds	binds	binds	binds		DOM7r-35 (VHH, human VH dAb (AlbudAb); propensity to dimerise by MALLS) VHH: EVQLLESGGGLVQPGGSLRLSCAASGFTFSLYRMVWVRQAPGKGLEWVSMISQFGNQTYYADSVKGRFTISRDNSKNTLYLQMNSLRAEDTAVYYCAKVRSWDQTGGRRTFDYWGQGTLVTVSS
						binds	binds	binds	no binding	DOM7h-112 (VHH, human VH immunoglobulin single variable domain (dAb, AlbudAb), not camelid) VHH: EVQLLESGGGLVQPGGSLRLSCAASGFTFGGYVMGWVRQAPGKGLEWVSAINRFGSSTYYADSVKGRFTISRDNSKNTLYLQMNSLRAEDTAVYYCAKGSLRHFDYWGQGTLVTVSS
					binds	binds	binds	binds		DOM7r-29 (VHH, human VH dAb (AlbudAb)) VHH: EVQLLESGGGLVQPGGSLRLSCAASGFTFKDYDMTWVRQAPGKGLEWVSMISSSGLWTYYADSVKGRFTISRDNSKNTLYLQMNSLRAEDTAVYYCAKGFRLFPRTFDYWGQGTLVTVSS

From patent US20120114647A1 (GlaxoSmithKline, published 2012)
